Assay results taken from the supplement of paper PMC11246515.
± gives the standard deviation of the averaged measurements.

Experiment: total protein half-life in vivo (active degradation + dilution); higher = more stable protein
[1] = E. coli NCM3722 delta-clpP delta-lon delta-hslV, growth: N-lim chemostat, doubling time 6 h
[2] = E. coli NCM3722 delta-clpP, growth: N-lim chemostat, doubling time 6 h
[3] = E. coli NCM3722 delta-lon, growth: N-lim chemostat, doubling time 6 h
[4] = E. coli NCM3722 delta-smpB, growth: N-lim chemostat, doubling time 6 h
[5] = wild type E. coli NCM3722, growth: C-lim chemostat, doubling time 6 h
[6] = wild type E. coli NCM3722, growth: C-lim chemostat, doubling time 12 h
[7] = wild type E. coli NCM3722, growth: N-lim chemostat, doubling time 6 h
[8] = wild type E. coli NCM3722, growth: N-lim chemostat, doubling time 12 h
[9] = wild type E. coli NCM3722, growth: P-lim chemostat, doubling time 6 h
[10] = wild type E. coli NCM3722, growth: P-lim chemostat, doubling time 12 h
[11] = E. coli NCM3722 delta-hslV, growth: N-lim chemostat, doubling time 6 h
[12] = wild type E. coli NCM3722, growth: C-lim chemostat, doubling time 3 h

| Sequence | total protein half-life in vivo [1] [h] | total protein half-life in vivo [2] [h] | total protein half-life in vivo [3] [h] | total protein half-life in vivo [4] [h] | total protein half-life in vivo [5] [h] | total protein half-life in vivo [6] [h] | total protein half-life in vivo [7] [h] | total protein half-life in vivo [8] [h] | total protein half-life in vivo [9] [h] | total protein half-life in vivo [10] [h] | total protein half-life in vivo [11] [h] | total protein half-life in vivo [12] [h] |
| --- | --- | --- | --- | --- | --- | --- | --- | --- | --- | --- | --- | --- |
| MTPGEVRRLYFIIRTFLSYGLDELIPKMRITLPLRLWRYSLFWMPNRHKDKLLGERLRLALQELGPVWIKFGQMLSTRRDLFPPHIADQLALLQDKVAPFDGKLAKQQIEAAMGGLPVEAWFDDFEIKPLASASIAQVHTARLKSNGKEVVIKVIRPDILPVIKADLKLIYRLARWVPRLLPDGRRLRPTEVVREYEKTLIDELNLLRESANAIQLRRNFEDSPMLYIPEVYPDYCSEGMMVMERIYGIPVSDVAALEKNGTNMKLLAERGVQVFFTQVFRDSFFHADMHPGNIFVSYEHPENPKYIGIDCGIVGSLNKEDKRYLAENFIAFFNRDYRKVAELHVDSGWVPPDTNVEEFEFAIRTVCEPIFEKPLAEISFGHVLLNLFNTARRFNMEVQPQLVLLQKTLLYVEGVGRQLYPQLDLWKTAKPFLESWIKDQVGIPALVRAFKEKAPFWVEKMPELPELVYDSLRQGKYLQHSVDKIARELQSNHVRQGQSRYFLGIGATLVLSGTFLLVSRPEWGLMPGWLMAGGLIAWFVGWRKTR [P0A6A0] | 6.52 ± 0.12 | 6.43 ± 0.4 | 5.96 ± 0.34 | 5.829 ± 0.037 | 6.626 ± 0.057 | 12.4 ± 1.3 | 6.04 ± 0.33 | 12.3 ± 0.45 | 6.6 ± 0.39 | 12.8 ± 0.67 |  |  |
| MSERLSITPLGPYIGAQISGADLTRPLSDNQFEQLYHAVLRHQVVFLRDQAITPQQQRALAQRFGELHIHPVYPHAEGVDEIIVLDTHNDNPPDNDNWHTDVTFIETPPAGAILAAKELPSTGGDTLWTSGIAAYEALSVPFRQLLSGLRAEHDFRKSFPEYKYRKTEEEHQRWREAVAKNPPLLHPVVRTHPVSGKQALFVNEGFTTRIVDVSEKESEALLSFLFAHITKPEFQVRWRWQPNDIAIWDNRVTQHYANADYLPQRRIMHRATILGDKPFYRAG | 4.38 ± 0.24 | 4.17 ± 3.1 | 2.1 | 2.36 ± 0.22 | 4.02 | 5.19 ± 0.73 | 1.58 | 2.31 ± 0.34 | 4.3 | 7.36 ± 0.57 | 2.39 ± 0.83 | 2.88 ± 0.46 |
| MKLTIIRLEKFSDQDRIDLQKIWPEYSPSSLQVDDNHRIYAARFNERLLAAVRVTLSGTEGALDSLRVREVTRRRGVGQYLLEEVLRNNPGVSCWWMADAGVEDRGVMTAFMQALGFTAQQGGWEKC | 4.23 ± 0.29 | 3.9 ± 0.53 |  | 3.46 ± 0.21 | 6.2 ± 1.2 | 11.91 ± 0.065 | 3.31 | 6.11 ± 1.4 | 5.99 ± 0.11 | 12.9 ± 2.6 | 5.19 |  |
| MSKQQIGVVGMAVMGRNLALNIESRGYTVSIFNRSREKTEEVIAENPGKKLVPYYTVKEFVESLETPRRILLMVKAGAGTDAAIDSLKPYLDKGDIIIDGGNTFFQDTIRRNRELSAEGFNFIGTGVSGGEEGALKGPSIMPGGQKEAYELVAPILTKIAAVAEDGEPCVTYIGADGAGHYVKMVHNGIEYGDMQLIAEAYSLLKGGLNLTNEELAQTFTEWNNGELSSYLIDITKDIFTKKDEDGNYLVDVILDEAANKGTGKWTSQSALDLGEPLSLITESVFARYISSLKDQRVAASKVLSGPQAQPAGDKAEFIEKVRRALYLGKIVSYAQGFSQLRAASEEYNWDLNYGEIAKIFRAGCIIRAQFLQKITDAYAENPQIANLLLAPYFKQIADDYQQALRDVVAYAVQNGIPVPTFSAAVAYYDSYRAAVLPANLIQAQRDYFGAHTYKRIDKEGVFHTEWLD | 5.22 ± 0.18 | 4.9 ± 0.45 | 5.58 ± 0.25 | 4.68 ± 0.083 | 5.85 ± 0.4 | 10 ± 0.24 | 4.73 ± 0.23 | 8.31 ± 0.24 | 6.054 ± 0.042 | 12.9 ± 1.8 | 5 ± 0.17 | 3.21 ± 0.06 |
| MSSMTTTDNKAFLNELARLVGSSHLLTDPAKTARYRKGFRSGQGDALAVVFPGSLLELWRVLKACVTADKIILMQAANTGLTEGSTPNGNDYDRDVVIISTLRLDKLHVLGKGEQVLAYPGTTLYSLEKALKPLGREPHSVIGSSCIGASVIGGICNNSGGSLVQRGPAYTEMSLFARINEDGKLTLVNHLGIDLGETPEQILSKLDDDRIKDDDVRHDGRHAHDYDYVHRVRDIEADTPARYNADPDRLFESSGCAGKLAVFAVRLDTFEAEKNQQVFYIGTNQPEVLTEIRRHILANFENLPVAGEYMHRDIYDIAEKYGKDTFLMIDKLGTDKMPFFFNLKGRTDAMLEKVKFFRPHFTDRAMQKFGHLFPSHLPPRMKNWRDKYEHHLLLKMAGDGVGEAKSWLVDYFKQAEGDFFVCTPEEGSKAFLHRFAAAGAAIRYQAVHSDEVEDILALDIALRRNDTEWYEHLPPEIDSQLVHKLYYGHFMCYVFHQDYIVKKGVDVHALKEQMLELLQQRGAQYPAEHNVGHLYKAPETLQKFYRENDPTNSMNPGIGKTSKRKNWQEVE | 6.43 ± 0.27 | 6.81 ± 1 | 5.72 ± 0.37 | 5.06 ± 0.94 | 4.28 ± 0.33 | 10 ± 0.23 | 5.98 ± 0.4 | 10.2 ± 0.66 | 4.92 ± 0.78 | 9.79 ± 1.1 | 5.82 ± 0.25 | 1.97 ± 0.11 |
| MIKRNLPLMITIGVFVLGYLYCLTQFPGFASTRVICNILTDNAFLGIIAVGMTFVILSGGIDLSVGSVIAFTGVFLAKVIGDFGLSPLLAFPLVLVMGCAFGAFMGLLIDALKIPAFIITLAGMFFLRGVSYLVSEESIPINHPIYDTLSSLAWKIPGGGRLSAMGLLMLAVVVIGIFLAHRTRFGNQVYAIGGNATSANLMGISTRSTTIRIYMLSTGLATLAGIVFSIYTQAGYALAGVGVELDAIASVVIGGTLLSGGVGTVLGTLFGVAIQGLIQTYINFDGTLSSWWTKIAIGILLFIFIALQRGLTVLWENRQSSPVTRVNIAQQ |  |  |  |  | 6.05 |  |  |  |  |  |  | 3.66 |
| MNLLKSLAAVSSMTMFSRVLGFARDAIVARIFGAGMATDAFFVAFKLPNLLRRIFAEGAFSQAFVPILAEYKSKQGEDATRVFVSYVSGLLTLALAVVTVAGMLAAPWVIMVTAPGFADTADKFALTSQLLKITFPYILLISLASLVGAILNTWNRFSIPAFAPTLLNISMIGFALFAAPYFNPPVLALAWAVTVGGVLQLVYQLPHLKKIGMLVLPRINFHDAGAMRVVKQMGPAILGVSVSQISLIINTIFASFLASGSVSWMYYADRLMEFPSGVLGVALGTILLPSLSKSFASGNHDEYNRLMDWGLRLCFLLALPSAVALGILSGPLTVSLFQYGKFTAFDALMTQRALIAYSVGLIGLIVVKVLAPGFYSRQDIKTPVKIAIVTLILTQLMNLAFIGPLKHAGLSLSIGLAACLNASLLYWQLRKQKIFTPQPGWMAFLLRLVVAVLVMSGVLLGMLHIMPEWSLGTMPWRLLRLMAVVLAGIAAYFAALAVLGFKVKEFARRTV [P0AF16] | 6.51 ± 0.41 | 5.82 ± 0.39 |  | 6.21 ± 0.26 |  | 9.84 |  | 8.94 ± 1.4 | 5.63 ± 0.54 | 10.6 ± 0.34 | 5.87 | 3.36 |
